The assay addresses T1, cytosolic receptor domain of rat Tom20 (dTom20), uniformly 15N-labelled (Rattus norvegicus, UniProt Q62760 51-145, uniformly [15N]-labelled).
T1 construct: Tom20 from Rattus norvegicus, cytosolic receptor domain, residues 51-145; Cloned into pET-22b without the stop codon; also called [15N]-dTom20; rat dTom20; source: E. coli BL21(DE3), purified (Ni-NTA, gel filtration on Superdex 200)
T1 sequence (looked up): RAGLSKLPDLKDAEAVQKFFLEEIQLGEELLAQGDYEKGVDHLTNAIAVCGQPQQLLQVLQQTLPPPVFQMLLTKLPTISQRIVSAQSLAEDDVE
Kind of assay: NMR titration; [1H,15N]-HSQC of 210 μM [15N]-dTom20 in 20 mM KPi pH 6.4, 50 mM KCl, 5% DMSO; aliquots of 10 mM unlabelled cyclic peptide in DMSO added (two molar excess); DMSO effect subtracted. Particulars: both partners purified.

The source of these data is article PMC4931251, “Characterization of the targeting signal in mitochondrial β-barrel proteins” (Nature Communications, 2016).

B1: cyclic β-hairpin peptide derived from human voltage-dependent anion channel 1 (hVDAC1) (peptide)
peptide: LTLSALLDGKNVNAGGHKLGLGLPP
modifications: head-to-tail cyclised: the new C terminus (after the two added Pro) covalently linked to the N terminus
notes: human voltage-dependent anion channel 1 (hVDAC1), last two β-strands and the loop between them, a.a; L257 to L279; residue numbers correspond to full-length hVDAC1; two Pro residues added to the C terminus (told in words); Measured mass [M+H]+ = 2,436.48; also called cyclic peptide; source: synthetic peptide (Fmoc/tBu chemistry, cyclised, purified by RP-HPLC)
For the molecule B1, the binding result is reported as “binds”.
